Molecular target: human HER2 (ErbB2) (human) (UniProt P04626)
Assay: cell-based or functional assay

- inhibition of SK-BR-3 relative cell proliferation (crystal violet, 72 h, 5 ug/ml antibody): 56%
- maximum inhibition of cell proliferation in SK-BR-3 cells: 66%
Substance: murine monoclonal antibody 4D5 (ATCC CRL 10463)

— patent publication EP2283866A2
